Data: patent US20240294890, “SYSTEMS, METHODS, AND COMPOSITIONS FOR RNA-GUIDED RNA-TARGETING CRISPR EFFECTORS” (MASSACHUSETTS INSTITUTE OF TECHNOLOGY, published 2024)

Biological target: T1, DisCas7-11 (Desulfonema ishimotonii)
T1 chain: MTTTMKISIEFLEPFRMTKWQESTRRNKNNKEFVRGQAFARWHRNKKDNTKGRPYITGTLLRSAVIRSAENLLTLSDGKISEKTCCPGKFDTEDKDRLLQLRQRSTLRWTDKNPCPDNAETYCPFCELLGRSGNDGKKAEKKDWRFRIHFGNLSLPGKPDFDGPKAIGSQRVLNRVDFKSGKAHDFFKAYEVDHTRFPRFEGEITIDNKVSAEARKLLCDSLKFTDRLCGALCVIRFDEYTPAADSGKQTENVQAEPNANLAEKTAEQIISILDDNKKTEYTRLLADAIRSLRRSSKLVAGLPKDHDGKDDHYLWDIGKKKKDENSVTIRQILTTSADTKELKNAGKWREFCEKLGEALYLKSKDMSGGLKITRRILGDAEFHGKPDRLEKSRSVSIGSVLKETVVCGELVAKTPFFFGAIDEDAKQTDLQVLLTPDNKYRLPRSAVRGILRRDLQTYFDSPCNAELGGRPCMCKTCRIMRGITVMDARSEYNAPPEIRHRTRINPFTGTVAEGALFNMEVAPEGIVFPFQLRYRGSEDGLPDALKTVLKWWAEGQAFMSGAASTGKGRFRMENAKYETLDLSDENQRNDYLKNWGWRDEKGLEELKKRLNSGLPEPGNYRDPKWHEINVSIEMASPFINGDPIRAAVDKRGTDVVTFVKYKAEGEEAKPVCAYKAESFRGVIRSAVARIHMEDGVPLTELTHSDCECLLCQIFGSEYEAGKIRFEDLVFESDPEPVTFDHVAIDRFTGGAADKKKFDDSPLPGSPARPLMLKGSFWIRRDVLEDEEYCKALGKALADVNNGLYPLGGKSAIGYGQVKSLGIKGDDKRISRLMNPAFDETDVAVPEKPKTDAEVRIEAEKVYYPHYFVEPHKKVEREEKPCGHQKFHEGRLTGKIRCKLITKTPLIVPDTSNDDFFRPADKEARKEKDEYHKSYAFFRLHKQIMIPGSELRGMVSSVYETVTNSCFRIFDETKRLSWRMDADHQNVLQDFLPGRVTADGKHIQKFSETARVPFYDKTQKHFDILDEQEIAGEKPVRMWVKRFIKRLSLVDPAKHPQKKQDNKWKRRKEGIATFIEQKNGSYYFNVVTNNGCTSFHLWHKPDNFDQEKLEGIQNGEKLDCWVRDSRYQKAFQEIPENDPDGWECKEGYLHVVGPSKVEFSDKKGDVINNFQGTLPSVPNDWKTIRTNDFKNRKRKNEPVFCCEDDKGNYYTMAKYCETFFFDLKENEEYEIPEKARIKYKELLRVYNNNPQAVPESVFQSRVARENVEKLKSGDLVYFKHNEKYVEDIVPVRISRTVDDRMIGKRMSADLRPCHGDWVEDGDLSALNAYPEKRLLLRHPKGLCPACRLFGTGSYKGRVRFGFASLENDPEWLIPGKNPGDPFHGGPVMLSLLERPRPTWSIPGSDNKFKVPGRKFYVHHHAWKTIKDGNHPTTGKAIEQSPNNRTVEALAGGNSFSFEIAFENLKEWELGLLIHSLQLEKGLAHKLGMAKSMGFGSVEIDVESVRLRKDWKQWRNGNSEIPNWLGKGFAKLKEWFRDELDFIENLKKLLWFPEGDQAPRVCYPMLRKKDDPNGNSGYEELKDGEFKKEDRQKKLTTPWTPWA
Test: EMSA; target binding crRNA-dependent; non-targeting control
Conditions: tags: Twin-Strep-SUMO tag cleaved off during purification; label: Cy5.5 body label
Protocol: Electrophoretic mobility shift assays (EMSA) for crRNA-target interactions and quantification of EMSA intensities were performed (FIGS. 17A-F). The EMSA assays for targeting crRNA in the absence of DisCas7-11 show minimal binding of the cRNA and shift of the labeled target).

B1: DisCas7-11 non-targeting crRNA ; MS2 target 153 nt (ssRNA ; ssRNA)
RNA 1: GGUUGGAAAGCCGGUUUUCUUUGAUGUCACGGAACCGCCAAUAUAACAAUACAGGUAUUAUAGUUG
RNA 2: GGGGCAAACUCCGGCAUCUACUAAUAGACGCCGGCCAUUCAAACAUGAGGAUUACCCAUGUCGAAGACAACAAAGAAGUUCAACUCUUUAUGUAUUGAUCUUCCUCGCGAUCUUUCUCUCGAAAUUUACCAAUCAAUUGCUUCUGUCGCUACU
  binding result: no binding
